B1: H2_T63Y_VL-par (antibody, V domains shown)
VH: QVQLVESGGGVVQPGRSLRLSCAASGFTFSDYGMHWVRQAPGKGLEWVAYISSGGTTIYYADYVKGRFTISRDNSKNTLYLQMNSLRAEDTAVYYCARWTNLYAMDYWGQGTTVTVSS
VL: DIVLTQSPDSLAVSLGERATINCRASKSVSTSGYSYMHWYQQKPGQPPKFLIYLASNLESGVPDRFSGSGSGTDFTLTISSLQAEDVAVYYCQHSREVPYTFGGGTKVEIKR
notes: Fc null human IgG1 / human kappa
B2: H3_M105P_L2 (antibody, V domains shown)
VH: QVQLVESGGGVVQPGRSLRLSCAASGFTFSDYGMHWVRQAPGKGLEWVAYISSGGTTIYYADTVKGRFTISRDNSKNTLYLQMNSLRAEDTAVYYCARWTNLYAPDYWGQGTTVTVSS
VL: DIVLTQSPDSLAVSLGERATINCRASKSVSTSGYSYMHWYQQKPGQPPKFLIYLASNKESGVPDRFSGSGSGTDFTLTISSLQAEDVAVYYCQHSREVPYTFGGGTKVEIKR
notes: as for B1
B3: H3_W99H_VL-par (antibody, V domains shown)
VH: QVQLVESGGGVVQPGRSLRLSCAASGFTFSDYGMHWVRQAPGKGLEWVAYISSGGTTIYYADTVKGRFTISRDNSKNTLYLQMNSLRAEDTAVYYCARHTNLYAMDYWGQGTTVTVSS
VL: DIVLTQSPDSLAVSLGERATINCRASKSVSTSGYSYMHWYQQKPGQPPKFLIYLASNLESGVPDRFSGSGSGTDFTLTISSLQAEDVAVYYCQHSREVPYTFGGGTKVEIKR
notes: as for B1
B4: H2_Y60K_L2 (antibody, V domains shown)
VH: QVQLVESGGGVVQPGRSLRLSCAASGFTFSDYGMHWVRQAPGKGLEWVAYISSGGTTIYKADTVKGRFTISRDNSKNTLYLQMNSLRAEDTAVYYCARWTNLYAMDYWGQGTTVTVSS
VL: DIVLTQSPDSLAVSLGERATINCRASKSVSTSGYSYMHWYQQKPGQPPKFLIYLASNKESGVPDRFSGSGSGTDFTLTISSLQAEDVAVYYCQHSREVPYTFGGGTKVEIKR
notes: as for B1

target: T1, huZIP12-ECD-GST (human, UniProt Q504Y0 24-202); experiment: HTRF competition: unlabelled antibody against Tb-labelled 51B12-parent on hZIP12-ECD-GST, detected with anti-GST-XL665
T1 construct: also called hZIP12-ECD-GST; human ZIP12-ECD-GST; not shown: glutathione S-transferase (GST) tag
T1 sequence (Q504Y0 24-202): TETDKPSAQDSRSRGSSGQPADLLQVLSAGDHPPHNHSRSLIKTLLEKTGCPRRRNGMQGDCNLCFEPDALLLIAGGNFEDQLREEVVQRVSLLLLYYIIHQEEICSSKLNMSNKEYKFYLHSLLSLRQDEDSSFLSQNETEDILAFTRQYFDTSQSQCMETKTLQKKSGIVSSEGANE
Procedure: Homogeneous Time Resolved Fluorescence (HTRF) assays were used to analyse the antibodies. A checkerboard assay was performed to validate the binding of the terbium labeled-antibody with hZIP12-ECD-GST. Serial dilutions (starting at 1000 ng/ml, semi-log dilutions) of Terbium-labeled 51B12-parent were incubated with serial dilutions of hZIP12-ECD-GST (starting at 5000 ng/ml, semi-log dilutions) followed by incubation with anti-GST-XL665. After excitation (320 nm), emission signals were obtained and HTRF ratio was calculated (665 nm/615 nm, Panel A). Signal/background ratios (S/B) were calculated from the HTRF ratios (0 ng/ml hZIP12-ECD-GST as background signal) and plotted against the Tb-51B12-parent concentration. The combinations 500 ng/ml hZIP12-ECD-GST+50 ng Tb-Ab, 150 ng/ml hZIP12-ECD-GST+50 ng Tb-Ab and 50 ng/ml hZIP12-ECD-GST+50 ng Tb-Ab were chosen as range for the competition assay. For the HTRF assay, 150 ng/ml hZIP12-ECD-GST+30 ng/ml Tb-51B12 was selected.

B1 and B2 are the same in “IC50 (read off the curve)” value: roughly 0.2 µg/mL for the first, roughly 0.2 µg/mL for the second.

B3 and B4 are the same in “IC50 (read off the curve)” value: roughly 0.06 µg/mL for the first, roughly 0.06 µg/mL for the second.
